Earlier results, collected in paper PMC5371383.

Experiments:
MC1R (Gallus gallus) = MC1R (Gallus gallus) (UniProt P55167)
MC1R (Homo sapiens) = MC1R (Homo sapiens) (UniProt Q01726)
Chain of UniProt Q01726 (Q01726 whole entry): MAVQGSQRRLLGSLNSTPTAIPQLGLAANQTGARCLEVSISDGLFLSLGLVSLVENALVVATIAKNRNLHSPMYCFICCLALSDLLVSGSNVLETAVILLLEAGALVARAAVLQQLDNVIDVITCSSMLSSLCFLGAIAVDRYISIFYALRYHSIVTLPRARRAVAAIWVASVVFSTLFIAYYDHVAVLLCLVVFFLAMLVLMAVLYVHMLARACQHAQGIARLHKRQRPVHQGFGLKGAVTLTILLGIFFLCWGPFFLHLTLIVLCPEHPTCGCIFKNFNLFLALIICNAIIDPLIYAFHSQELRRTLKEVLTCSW

Chain of UniProt P55167 (P55167 whole entry): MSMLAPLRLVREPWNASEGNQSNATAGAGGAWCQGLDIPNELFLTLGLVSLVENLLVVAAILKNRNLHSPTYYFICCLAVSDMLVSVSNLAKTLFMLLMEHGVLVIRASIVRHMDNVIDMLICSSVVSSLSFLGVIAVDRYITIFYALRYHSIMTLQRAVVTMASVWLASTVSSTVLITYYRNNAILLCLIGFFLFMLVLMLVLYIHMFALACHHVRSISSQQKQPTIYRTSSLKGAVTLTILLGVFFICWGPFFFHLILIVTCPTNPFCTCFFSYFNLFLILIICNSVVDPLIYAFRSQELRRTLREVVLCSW

Kd (MC1R (Gallus gallus)): 363 nM | Kd (MC1R (Homo sapiens)): 0.21 nM
Substance: α-MSH (from UniProt P01189)
